Positions count from the first letter of the chain named.
B1: M3A06 (antibody, V domains shown)
VH: EVQLVESGGGLVKPGGSLRLSCAASGFTLTSYSMNWVRQAPGKGLEWVSSISSSSSYIHYADSVKGRFTISRDNAKNSVYLQMNSLRAEDTAAYYCARVARELDPFDMWGQGTVVTVAS
VL: QSVLTQPPSVSGAPGQRVTISCTGSSSNIGAGYDVHWYQQLPGTAPKLLVYANNNRPSGVPDRFSGSKSGTSASLAITGLQADDEADYYCQSYDRSLSGSVFGGGTKLTVL
B2: M3B02 (antibody, V domains shown)
VH: EVQLVESGGGLVKPGGSLRISCVASEFTLSGYAMNWVRQVPGKGLEWVSSISSSSSYINYADFVKGRFTISRDNAKNSVFLQLNSLRPEDTALYYCVRERPTAILPYLDLWGRGTLVTVSS
VL: B1 VL with H36Q, L41S, V50I, Y51H, A52G, D83E, S100W
B3: M4A02 (antibody, V domains shown)
VH: EVQLVESGGGLVEPGGSLRLSCAASGFMFTSYAMHWVRQAPGRGLEWVSSITGGGNFVEYAVSVQGRFTVSRDNNQNSLYLQMNSLRVEDTAMYYCAREDYNSGANLHWFDPWGQGTLVTVSS
VL: QSVLTQPPSVSGAPGQRVTISCTGSSSNIGAFFDVHWYSHLPGTAPKLLIYGDRNRPSGVPERFSGSKSGASASLTITGLRAEDEADYYCQSYDRGLSAWVFGGGTRVTVL
B4: M4A05 (antibody, V domains shown)
VH: EVQLVESGGGLVKPGGSLRLSCAAFGFSLSGYGMNWVRQAPGKGLQWVSSITASSSYITYRDSLRGRFTISRDNAQNSLYLDMTALRVEDTAVYYCATNGKLPPYFDHWGQGVLVVVSS
VL: QSVLTQPPSVSGAPGQRVTISCTGSGSNIGAGYDVHWYQQLPGTAPKLLIYDNNHRASGVPDRVSASWSGTSASLAITGLQAEDEADYYCQSYDRNLEGVVFGGGTKLTVL
B5: M4A11 (antibody, V domains shown)
VH: QVQLVQSGSEVKRPGASVRVSCTASGYTFSNYGVSWMRQAPGHGLEWMGWISTHNQNVRYSQNFQGRVTVTTDTSTSTAYMDLRGLKPDDTAVYFCARMIPVGTTYTPYWTGWTPGGMDIWGQGTTVIVSS
VL: QSVLTQPPSASGTPGQRVIMSCSGTTSNIGRNFVYWYQQLPKEAPTLLIYGNDQRPAGVPDRFSGSTSGTSASLAISGLRSGDEADYYCATWDDSVNGPVFGGGTKLTVL

What follows are binders tested on F protein of hMPV A virus (human metapneumovirus subtype A) (assay: cell-based or functional assay).

Binder | PRNT IC50 [µg/mL]
B1 | 0.31
B2 | 1.06
B3 | 0.186
B4 | 0.0569
B5 | > 10

Each binder was assayed on F protein of RSV B/Washington virus (respiratory syncytial virus B, Washington strain) (assay: cell-based or functional assay).

Binder | PRNT IC50 [µg/mL]
B1 | 0.0274
B2 | 0.0153
B3 | 0.0364
B4 | 0.0295

What follows are binders tested on F protein of hMPV B virus (human metapneumovirus subtype B) (assay: cell-based or functional assay).

Binder | PRNT IC50 [µg/mL]
B1 | 0.416
B2 | 1.54
B3 | 0.0927
B4 | 0.0425
B5 | > 10

Reference: patent US20240327502A1
